Measured values from paper PMC10790359, “System for Self-excited Targeted Photodynamic Therapy Based on the Multimodal Protein DARP-NanoLuc-SOPP3” (Acta Naturae, 2023).

Target: T1, HER2 (human epidermal growth factor receptor type II) (human (endogenous in SKOV3.ip1), UniProt P04626 23-1255)
T1 construct: HER2, human epidermal growth factor receptor type II, on the surface of human ovarian adenocarcinoma SKOV3.ip1 / SKOV3.ip1-Kat cells; also called HER2 receptor; HER2 tumor marker; source: endogenous, on SKOV3.ip1 and SKOV3.ip1-Kat cells (HER2 overexpression)
Assay: flow cytometry on cells; cells incubated with 300 nM DARP-NanoLuc-SOPP3-AF488 conjugate in complete growth medium for 10 min at 37°C, washed thrice with phosphate-buffered saline; HER2-positive SKOV3.ip1-Kat cells; control: unlabelled cells
Conditions: one partner purified

B1: DARP-NanoLuc-SOPP3 (designed binder)
chain: MDLGKKLLEAARAGQDDEVRILMANGADVNAHDFYGITPLHLAANFGHLEIVEVLLKHGADVNAFDYDNTPLHLAADAGHLEIVEVLLKYGADVNASDRDGHTPLHLAAREGHLEIVEVLLKNGADVNAQDKFGKTAFDISIDNGNEDLAEILQEFPKPSTPPGSSGGAMVFTLEDFVGDWRQTAGYNLDQVLEQGGVSSLFQNLGVSVTPIQRIVLSGENGLKIDIHVIIPYEGLSGDQMGQIEKIFKVVYPVDDHHFKVILHYGTLVIDGVTPNMIDYFGRPYEGIAVFDGKKITVTGTLWNGNKIIDERLINPDGSLLFRVTINGVTGWRLCERILAGGGGSGSEKSFVITDPRLPDNPIIFASDGFLELTEYSREEILGRNGRFLQGPETDQATVQKIRDAIRDQREITVQLINYTKSGKKFLNLLNLQPIRDQKGELQAFIGVQVDGKLAAALE
modifications: conjugated with N-hydroxysuccinimide esters of dyes (AF488 or Cy5.5) for flow cytometry and confocal microscopy; legends and results call the green conjugate FITC; labelled residues not stated
notes: DARPin_9-29, HER2-specific targeting module; NanoLuc luciferase (engineered), amplified from plasmid pNL1.1.CMV (Promega); SOPP3 phototoxic flavoprotein (a miniSOG analogue, engineered), amplified from pET24-SOPP3; vector-derived residues between SOPP3 and the C-terminal HHHHHH of the printed chain; cytotoxicity assays used the protein without a dye; also called DARPin-NanoLuc-SOPP3; …
For B1, the “fold shift in the median fluorescence of conjugate-treated cells compared to the control” value was ~100 fold.
